Data published in US20140120113A1.

Key:
Assay in all cases: cell-based or functional assay
[1] = molecular target: HA of influenza virus A/EW/MPF461/07 (H5) (Influenza A virus A/Eurasian Wigeon/MPF461/07 (H5))
[2] = molecular target: HA of influenza virus A/Hong Kong/1073/99 (H9) (Influenza A virus A/Hong Kong/1073/99 (H9))
[3] = molecular target: HA of influenza virus A/Env/MPU3156/05 (H2) (Influenza A virus A/Env/MPU3156/05 (H2))
[4] = molecular target: HA of influenza virus A/EW/MPH571/08 (H8) (Influenza A virus A/Eurasian Wigeon/MPH571/08 (H8))
[5] = molecular target: HA of influenza virus A/Ck/HK/SSP176/09 (H9) (Influenza A virus A/Chick/HK/SSP176/09 (H9))
[6] = molecular target: HA of influenza virus A/Johannesburg/33/94 (H3) (Influenza A virus A/Johannesburg/33/94 (H3))
[7] = molecular target: HA of influenza virus A/Brisbane/59/2007 (H1) (Influenza A virus A/Brisbane/59/2007 (H1))
[8] = molecular target: HA of influenza virus A/Brisbane/10/2007 (H3) (Influenza A virus A/Brisbane/10/2007 (H3))
[9] = molecular target: HA of influenza virus A/Hong Kong/1/68 (H3) (Influenza A virus A/Hong Kong/1/68 (H3)) (UniProt Q91MA7)
[10] = molecular target: HA of influenza virus A/Hiroshima/52/2005 (H3) (Influenza A virus A/Hiroshima/52/2005 (H3))
[11] = molecular target: HA of influenza virus A/WF/MPA 892/06 (H4) (Influenza A virus A/WF/HK/MPA892/06 (H4))
[12] = molecular target: HA of influenza virus A/EW/MPD411/07 (H6) (Influenza A virus A/Eurasian Wigeon/MPD411/07 (H6))
[13] = molecular target: HA of influenza virus A/Chick/Germany/N/49 (H10) (Influenza A virus A/Chick/Germany/N/49 (H10)) (UniProt P12581)
[14] = molecular target: HA of influenza virus A/Panama/2007/1999 (H3) (Influenza A virus A/Panama/2007/1999 (H3))

Sequence of UniProt P12581 (P12581 17-561 limits assumed): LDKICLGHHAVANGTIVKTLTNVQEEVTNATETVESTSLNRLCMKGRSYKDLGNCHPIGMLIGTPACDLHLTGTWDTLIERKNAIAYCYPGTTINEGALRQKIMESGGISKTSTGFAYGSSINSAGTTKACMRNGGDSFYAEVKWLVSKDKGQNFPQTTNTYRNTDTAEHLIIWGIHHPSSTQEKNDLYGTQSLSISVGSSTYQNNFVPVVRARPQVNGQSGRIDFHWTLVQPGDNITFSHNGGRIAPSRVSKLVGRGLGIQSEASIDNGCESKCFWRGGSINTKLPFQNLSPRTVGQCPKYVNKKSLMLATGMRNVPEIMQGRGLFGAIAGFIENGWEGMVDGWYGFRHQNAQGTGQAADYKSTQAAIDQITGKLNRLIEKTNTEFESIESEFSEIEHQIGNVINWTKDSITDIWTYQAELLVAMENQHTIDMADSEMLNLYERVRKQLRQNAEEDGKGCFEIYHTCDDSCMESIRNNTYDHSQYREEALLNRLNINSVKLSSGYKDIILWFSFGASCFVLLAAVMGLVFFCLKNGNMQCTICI

Work on CR9114 (antibody) yielded a geomean IC50, virus neutralization assay (VNA) [1] of 10.5 µg/mL, a geomean IC50, virus neutralization assay (VNA) [2] of 4.4 µg/mL and a geomean IC50, virus neutralization assay (VNA) [3] of 8.8 µg/mL. It also gave a geomean IC50, virus neutralization assay (VNA) [4] of 8.8 µg/mL, a geomean IC50, virus neutralization assay (VNA) [5] of 6.3 µg/mL and a geomean IC50, virus neutralization assay (VNA) [6] of 21.9 µg/mL. It also gave a geomean IC50, virus neutralization assay (VNA) [7] of 2.6 µg/mL, a geomean IC50, virus neutralization assay (VNA) [8] of 5.6 µg/mL and a geomean IC50, virus neutralization assay (VNA) [9] of 19 µg/mL. The geomean IC50, virus neutralization assay (VNA) [10] was 12.5 µg/mL, the geomean IC50, virus neutralization assay (VNA) [11] was 0.8 µg/mL and the geomean IC50, virus neutralization assay (VNA) [12] was 10.5 µg/mL. The geomean IC50, virus neutralization assay (VNA) [13] was 15.7 µg/mL and the geomean IC50, virus neutralization assay (VNA) [14] was 39.9 µg/mL.
